# Reference: the supplement of paper PMC11316812
# ± gives the standard deviation of the averaged measurements.
# Assays:
# MCF7 = experiment: percentage of EdU-negative (G0-arrested) nuclei per well, 72 h; higher = more G0 arrest; settings: reference: sequence is the full UniProt precursor, the tested protein was the secreted form or ectodomain
# hTERT-HMEC = experiment: as above; settings: reference: sequence is the full UniProt precursor, the tested protein was the secreted form or ectodomain
# [1] = protein concentration 0.01675 µM
# [2] = protein concentration 0.1675 µM
# [3] = protein concentration 0.00975 µM
# [4] = protein concentration 0.0975 µM
# [5] = protein concentration 0.0155 µM
# [6] = protein concentration 0.02775 µM
# [7] = protein concentration 0.2775 µM
# [8] = protein concentration 0.01925 µM
# [9] = protein concentration 0.1925 µM
# [10] = protein concentration 0.03125 µM
# [11] = protein concentration 0.3125 µM
# [12] = protein concentration 0.0225 µM
# [13] = protein concentration 0.0283425 µM
# [14] = protein concentration 0.283425 µM
# 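Further: secreted proteins added to cultured cells, EdU pulse at the end, nuclei found by Hoechst imaging, EdU status from nuclear versus surrounding ring intensity ratio, PBS as neutral control.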
sequence,measurement,setting,value
MFKCWSVVLVLGFIFLESEGRPTKEGGYGLKSYQPLMRLRHKQEKNQESSRVKGFMIQDGPFGSCENKYCGLGRHCVTSRETGQAECACMDLCKRHYKPVCGSDGEFYENHCEVHRAACLKKQKITIVHNEDCFFKGDKCKTTEYSKMKNMLLDLQNQKYIMQENENPNGDDISRKKLLVDQMFKYFDADSNGLVDINELTQVIKQEELGKDLFDCTLYVLLKYDDFNADKHLALEEFYRAFQVIQLSLPEDQKLSITAATVGQSAVLSCAIQGTLRPPIIWKRNNIILNNLDLEDINDFGDDGSLYITKVTTTHVGNYTCYADGYEQVYQTHIFQVNVPPVIRVYPESQAREPGVTASLRCHAEGIPKPQLGWLKNGIDITPKLSKQLTLQANGSEVHISNVRYEDTGAYTCIAKNEAGVDEDISSLFVEDSARKTLANILWREEGLGIGNMFYVFYEDGIKVIQPIECEFQRHIKPSEKLLGFQDEVCPKAEGDEVQRCVWASAVNVKDKFIYVAQPTLDRVLIVDVQSQKVVQAVSTDPVPVKLHYDKSHDQVWVLSWGTLEKTSPTLQVITLASGNVPHHTIHTQPVGKQFDRVDDFFIPTTTLIITHMRFGFILHKDEAALQKIDLETMSYIKTINLKDYKCVPQSLAYTHLGGYYFIGCKPDSTGAVSPQVMVDGVTDSVIGFNSDVTGTPYVSPDGHYLVSINDVKGLVRVQYITIRGEIQEAFDIYTNLHISDLAFQPSFTEAHQYNIYGSSSTQTDVLFVELSSGKVKMIKSLKEPLKAEEWPWNRKNRQIQDSGLFGQYLMTPSKDSLFILDGRLNKLNCEITEVEKGNTVIWVGDA [Q8N475],percentage of EdU-negative,MCF7; [1],24.2 ± 4.5%
same,percentage of EdU-negative,MCF7; [2],26.4 ± 1.8%
same,percentage of EdU-negative,hTERT-HMEC; [1],4.72 ± 1.2%
same,percentage of EdU-negative,hTERT-HMEC; [2],6.54 ± 0.16%
MGADGETVVLKNMLIGINLILLGSMIKPSECQLEVTTERVQRQSVEEEGGIANYNTSSKEQPVVFNHVYNINVPLDNLCSSGLEASAEQEVSAEDETLAEYMGQTSDHESQVTFTHRINFPKKACPCASSAQVLQELLSRIEMLEREVSVLRDQCNANCCQESAATGQLDYIPHCSGHGNFSFESCGCICNEGWFGKNCSEPYCPLGCSSRGVCVDGQCICDSEYSGDDCSELRCPTDCSSRGLCVDGECVCEEPYTGEDCRELRCPGDCSGKGRCANGTCLCEEGYVGEDCGQRQCLNACSGRGQCEEGLCVCEEGYQGPDCSAVAPPEDLRVAGISDRSIELEWDGPMAVTEYVISYQPTALGGLQLQQRVPGDWSGVTITELEPGLTYNISVYAVISNILSLPITAKVATHLSTPQGLQFKTITETTVEVQWEPFSFSFDGWEISFIPKNNEGGVIAQVPSDVTSFNQTGLKPGEEYIVNVVALKEQARSPPTSASVSTVIDGPTQILVRDVSDTVAFVEWIPPRAKVDFILLKYGLVGGEGGRTTFRLQPPLSQYSVQALRPGSRYEVSVSAVRGTNESDSATTQFTTEIDAPKNLRVGSRTATSLDLEWDNSEAEVQEYKVVYSTLAGEQYHEVLVPRGIGPTTRATLTDLVPGTEYGVGISAVMNSQQSVPATMNARTELDSPRDLMVTASSETSISLIWTKASGPIDHYRITFTPSSGIASEVTVPKDRTSYTLTDLEPGAEYIISVTAERGRQQSLESTVDAFTGFRPISHLHFSHVTSSSVNITWSDPSPPADRLILNYSPRDEEEEMMEVSLDATKRHAVLMGLQPATEYIVNLVAVHGTVTSEPIVGSITTGIDPPKDITISNVTKDSVMVSWSPPVASFDYYRVSYRPTQVGRLDSSVVPNTVTEFTITRLNPATEYEISLNSVRGREESERICTLVHTAMDNPVDLIATNITPTEALLQWKAPVGEVENYVIVLTHFAVAGETILVDGVSEEFRLVDLLPSTHYTATMYATNGPLTSGTISTNFSTLLDPPANLTASEVTRQSALISWQPPRAEIENYVLTYKSTDGSRKELIVDAEDTWIRLEGLLENTDYTVLLQAAQDTTWSSITSTAFTTGGRVFPHPQDCAQHLMNGDTLSGVYPIFLNGELSQKLQVYCDMTTDGGGWIVFQRRQNGQTDFFRKWADYRVGFGNVEDEFWLGLDNIHRITSQGRYELRVDMRDGQEAAFASYDRFSVEDSRNLYKLRIGSYNGTAGDSLSYHQGRPFSTEDRDNDVAVTNCAMSYKGAWWYKNCHRTNLNGKYGESRHSQGINWYHWKGHEFSIPFVEMKMRPYNHRLMAGRKRQSLQF,percentage of EdU-negative,MCF7; [3],26.36 ± 0.12%
same,percentage of EdU-negative,MCF7; [4],26.4 ± 0.85%
same,percentage of EdU-negative,hTERT-HMEC; [3],5.09 ± 0.52%
same,percentage of EdU-negative,hTERT-HMEC; [4],6.03 ± 1.7%
MLRGTLLCAVLGLLRAQPFPCPPACKCVFRDAAQCSGGDVARISALGLPTNLTHILLFGMGRGVLQSQSFSGMTVLQRLMISDSHISAVAPGTFSDLIKLKTLRLSRNKITHLPGALLDKMVLLEQLFLDHNALRGIDQNMFQKLVNLQELALNQNQLDFLPASLFTNLENLKLLDLSGNNLTHLPKGLLGAQAKLERLLLHSNRLVSLDSGLLNSLGALTELQFHRNHIRSIAPGAFDRLPNLSSLTLSRNHLAFLPSALFLHSHNLTLLTLFENPLAELPGVLFGEMGGLQELWLNRTQLRTLPAAAFRNLSRLRYLGVTLSPRLSALPQGAFQGLGELQVLALHSNGLTALPDGLLRGLGKLRQVSLRRNRLRALPRALFRNLSSLESVQLDHNQLETLPGDVFGALPRLTEVLLGHNSWRCDCGLGPFLGWLRQHLGLVGGEEPPRCAGPGAHAGLPLWALPGGDAECPGPRGPPPRPAADSSSEAPVHPALAPNSSEPWVWAQPVTTGKGQDHSPFWGFYFLLLAVQAMITVIIVFAMIKIGQLFRKLIRERALG,percentage of EdU-negative,MCF7; [5],24.8 ± 4.1%
same,percentage of EdU-negative,MCF7; protein concentration 0.155 µM,32.8 ± 1.1%
same,percentage of EdU-negative,hTERT-HMEC; [5],4.92 ± 0.41%
same,percentage of EdU-negative,hTERT-HMEC; protein concentration 0.155 µM,9.145 ± 0.063%
MRFFCARCCSFGPEMPAVQLLLLACLVWDVGARTAQLRKANDQSGRCQYTFSVASPNESSCPEQSQAMSVIHNLQRDSSTQRLDLEATKARLSSLESLLHQLTLDQAARPQETQEGLQRELGTLRRERDQLETQTRELETAYSNLLRDKSVLEEEKKRLRQENENLARRLESSSQEVARLRRGQCPQTRDTARAVPPGSREVSTWNLDTLAFQELKSELTEVPASRILKESPSGYLRSGEGDTGCGELVWVGEPLTLRTAETITGKYGVWMRDPKPTYPYTQETTWRIDTVGTDVRQVFEYDLISQFMQGYPSKVHILPRPLESTGAVVYSGSLYFQGAESRTVIRYELNTETVKAEKEIPGAGYHGQFPYSWGGYTDIDLAVDEAGLWVIYSTDEAKGAIVLSKLNPENLELEQTWETNIRKQSVANAFIICGTLYTVSSYTSADATVNFAYDTGTGISKTLTIPFKNRYKYSSMIDYNPLEKKLFAWDNLNMVTYDIKLSKM,percentage of EdU-negative,MCF7; [6],23.1 ± 3.6%
same,percentage of EdU-negative,MCF7; [7],22.8 ± 0.49%
same,percentage of EdU-negative,hTERT-HMEC; [6],5.22 ± 0.79%
same,percentage of EdU-negative,hTERT-HMEC; [7],5.83 ± 0.68%
MALVRALVCCLLTAWHCRSGLGLPVAPAGGRNPPPAIGQFWHVTDLHLDPTYHITDDHTKVCASSKGANASNPGPFGDVLCDSPYQLILSAFDFIKNSGQEASFMIWTGDSPPHVPVPELSTDTVINVITNMTTTIQSLFPNLQVFPALGNHDYWPQDQLPVVTSKVYNAVANLWKPWLDEEAISTLRKGGFYSQKVTTNPNLRIISLNTNLYYGPNIMTLNKTDPANQFEWLESTLNNSQQNKEKVYIIAHVPVGYLPSSQNITAMREYYNEKLIDIFQKYSDVIAGQFYGHTHRDSIMVLSDKKGSPVNSLFVAPAVTPVKSVLEKQTNNPGIRLFQYDPRDYKLLDMLQYYLNLTEANLKGESIWKLEYILTQTYDIEDLQPESLYGLAKQFTILDSKQFIKYYNYFFVSYDSSVTCDKTCKAFQICAIMNLDNISYADCLKQLYIKHNY,percentage of EdU-negative,MCF7; [8],26.4 ± 2.1%
same,percentage of EdU-negative,MCF7; [9],28.3 ± 3.7%
same,percentage of EdU-negative,hTERT-HMEC; [8],4.69 ± 0.32%
same,percentage of EdU-negative,hTERT-HMEC; [9],15.5 ± 1.9%
MVGPAPRRRLRPLAALALVLALAPGLPTARAGQTPRPAERGPPVRLFTEEELARYGGEEEDQPIYLAVKGVVFDVTSGKEFYGRGAPYNALTGKDSTRGVAKMSLDPADLTHDTTGLTAKELEALDEVFTKVYKAKYPIVGYTARRILNEDGSPNLDFKPEDQPHFDIKDEF [Q9UMX5],percentage of EdU-negative,MCF7; [10],22.8 ± 0.65%
same,percentage of EdU-negative,MCF7; [11],23.5 ± 1.4%
same,percentage of EdU-negative,hTERT-HMEC; [10],4.98 ± 0.59%
same,percentage of EdU-negative,hTERT-HMEC; [11],6.64 ± 2.3%
MIRTLLLSTLVAGALSCGVSTYAPDMSRMLGGEEARPNSWPWQVSLQYSSNGQWYHTCGGSLIANSWVLTAAHCISSSGIYRVMLGQHNLYVAESGSLAVSVSKIVVHKDWNSDQVSKGNDIALLKLANPVSLTDKIQLACLPPAGTILPNNYPCYVTGWGRLQTNGALPDDLKQGQLLVVDYATCSSSGWWGSTVKTNMICAGGDGVICTCNGDSGGPLNCQASDGRWEVHGIGSLTSVLGCNYYYKPSIFTRVSNYNDWINSVIANN,percentage of EdU-negative,MCF7; [12],22.3 ± 2.4%
same,percentage of EdU-negative,MCF7; protein concentration 0.225 µM,26.3 ± 0.6%
same,percentage of EdU-negative,hTERT-HMEC; [12],4.64 ± 0.17%
same,percentage of EdU-negative,hTERT-HMEC; protein concentration 0.225 µM,5.75 ± 0.53%
MSEVPVARVWLVLLLLTVQVGVTAGAPWQCAPCSAEKLALCPPVSASCSEVTRSAGCGCCPMCALPLGAACGVATARCARGLSCRALPGEQQPLHALTRGQGACVQESDASAPHAAEAGSPESPESTEITEEELLDNFHLMAPSEEDHSILWDAISTYDGSKALHVTNIKKWKEPCRIELYRVVESLAKAQETSGEEISKFYLPNCNKNGFYHSRQCETSMDGEAGLCWCVYPWNGKRIPGSPEIRGDPNCQIYFNVQN,percentage of EdU-negative,MCF7; [13],24.4 ± 0.48%
same,percentage of EdU-negative,MCF7; [14],29.6 ± 4%
same,percentage of EdU-negative,hTERT-HMEC; [13],5.41 ± 0.56%
same,percentage of EdU-negative,hTERT-HMEC; [14],9.21 ± 1.1%
